# ± gives the standard deviation of the averaged measurements.
# Tested on: ATP
# Assay: switch fluorescence ratio, 500 uM ATP over buffer (Cy3 cluster intensity, sum of 5 cycles each) (fold (ratio)); higher = stronger signal-on switching upon ATP binding; sequences stand for … in TCGTCGGCAGCGTCAGATGTGTATAAGAGACAGTTTTTTTTTTTTTTTTTTTTTTTTT…TC
# Conditions: aptamer strand: ATP DNA aptamer (quencher-CACCTGGGGGAGTATTGCGGAGGAAGG + anchor), 100 nM annealed; ATP concentration: 500 uM
# Outline: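 Five buffer/ATP imaging cycles were run on Cy3-labelled switching-strand clusters on a modified Illumina MiSeq flow-cell, with NaOH stripping and re-annealing between cycles. In each cycle, clusters annealed to 100 nM quencher-labelled ATP aptamer were imaged in selection buffer, then after 15 min with 500 uM ATP at 22 °C. Per cluster, the fluorescence ratio is summed target-cycle over summed buffer-cycle Cy3 intensity, averaged per switch-domain sequence. Only clusters within 100-1000 RFU were kept.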
# 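Note: ATP exposure 15 min at 22 °C before imaging.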
sequence,measurement,value
CGGATCTGAA,switch fluorescence ratio,1.01 ± 0.016
CGGATCTTGT,switch fluorescence ratio,0.961 ± 0.021
CGGATGGCGA,switch fluorescence ratio,1.03 ± 0.021
CGGATGTAGC,switch fluorescence ratio,1.02 ± 0.063
CGGATGTATA,switch fluorescence ratio,0.988 ± 0.014
CGGATGTTGC,switch fluorescence ratio,1.03 ± 0.05
CGGATGTTGG,switch fluorescence ratio,1.02 ± 0.12
CGGATTCGAT,switch fluorescence ratio,1.01 ± 0.011
CGGATTTGGA,switch fluorescence ratio,0.976 ± 0.051
CGGATTTTTT,switch fluorescence ratio,0.995 ± 0.021
CGGCAAATAG,switch fluorescence ratio,2.52 ± 0.3
CGGCAAGGCT,switch fluorescence ratio,1.22 ± 0.1
CGGCACCACA,switch fluorescence ratio,1.08 ± 0.015
CGGCATTAAA,switch fluorescence ratio,0.995 ± 0.0058
CGGCCCGCGA,switch fluorescence ratio,1.94 ± 0.96
CGGCCTGATA,switch fluorescence ratio,1.01 ± 0.028
CGGCCTTACC,switch fluorescence ratio,1.334 ± 0.0037
CGGCCTTAGA,switch fluorescence ratio,0.985 ± 0.029
CGGCGAAGGG,switch fluorescence ratio,0.961 ± 0.014
CGGCGAATCC,switch fluorescence ratio,1.033 ± 0.0088
CGGCGAGATA,switch fluorescence ratio,1.01 ± 0.029
CGGCGCCTGC,switch fluorescence ratio,1.08 ± 0.039
CGGCGCGTAG,switch fluorescence ratio,1.05 ± 0.031
CGGCGGCTTC,switch fluorescence ratio,1.01 ± 0.028
CGGCGTAAAA,switch fluorescence ratio,1.13 ± 0.21
CGGCGTCGGG,switch fluorescence ratio,1 ± 0.032
CGGCGTTCCG,switch fluorescence ratio,1 ± 0.055
CGGCTACCCG,switch fluorescence ratio,0.989 ± 0.049
CGGCTATCTC,switch fluorescence ratio,1.381 ± 0.011
CGGCTATTAC,switch fluorescence ratio,3.64 ± 1.3
CGGCTCTTTG,switch fluorescence ratio,0.985 ± 0.043
CGGCTGGTAC,switch fluorescence ratio,1.86 ± 0.027
CGGCTGGTTC,switch fluorescence ratio,0.98 ± 0.04
CGGCTGTATG,switch fluorescence ratio,0.988 ± 0.035
CGGCTTACCC,switch fluorescence ratio,1.14 ± 0.2
CGGCTTACGT,switch fluorescence ratio,0.993 ± 0.016
CGGCTTGCTG,switch fluorescence ratio,1.03 ± 0.018
CGGCTTTATA,switch fluorescence ratio,1.02 ± 0.028
CGGCTTTTGT,switch fluorescence ratio,1 ± 0.029
CGGGAAGCAC,switch fluorescence ratio,1.53 ± 0.34
CGGGACAAGT,switch fluorescence ratio,0.982 ± 0.041
CGGGACACGT,switch fluorescence ratio,0.9677 ± 0.0063
CGGGACAGGG,switch fluorescence ratio,1 ± 0.013
CGGGACGCGT,switch fluorescence ratio,1.021 ± 0.0039
CGGGACGGCA,switch fluorescence ratio,1.01 ± 0.017
CGGGAGAACC,switch fluorescence ratio,0.9981 ± 0.0082
CGGGAGAGAG,switch fluorescence ratio,1.03 ± 0.014
CGGGAGGTA,switch fluorescence ratio,1.0174 ± 1.4e-06
CGGGAGTGTC,switch fluorescence ratio,0.89727 ± 0.00075
CGGGATGCCT,switch fluorescence ratio,1 ± 0.021
CGGGATGGCT,switch fluorescence ratio,0.996 ± 0.011
CGGGCAGATG,switch fluorescence ratio,0.983 ± 0.028
CGGGCCACGC,switch fluorescence ratio,1.04 ± 0.019
CGGGCCTATT,switch fluorescence ratio,0.98938 ± 0.00074
CGGGCTCCGC,switch fluorescence ratio,1.21 ± 0.099
CGGGCTCTGG,switch fluorescence ratio,1.02 ± 0.0016
CGGGCTGGGG,switch fluorescence ratio,0.993 ± 0.039
CGGGCTTCCT,switch fluorescence ratio,1.21 ± 0.22
CGGGCTTGTG,switch fluorescence ratio,1 ± 0.011
CGGGGAAACA,switch fluorescence ratio,0.9943 ± 0.0077
CGGGGAAGGG,switch fluorescence ratio,1.005 ± 0.0032
CGGGGAAGTC,switch fluorescence ratio,1.02 ± 0.044
CGGGGACGGG,switch fluorescence ratio,1.02 ± 0.013
CGGGGACTTG,switch fluorescence ratio,0.987 ± 0.029
CGGGGAGAC,switch fluorescence ratio,1.02 ± 0.062
CGGGGAGACG,switch fluorescence ratio,0.929 ± 0.13
CGGGGAGCCA,switch fluorescence ratio,1.001 ± 0.01
CGGGGAGGAG,switch fluorescence ratio,1.02 ± 0.056
CGGGGATACG,switch fluorescence ratio,1.01 ± 0.048
CGGGGATGTT,switch fluorescence ratio,0.999 ± 0.035
CGGGGATTCC,switch fluorescence ratio,1.06 ± 0.031
CGGGGATTCG,switch fluorescence ratio,0.996 ± 0.026
CGGGGCAGGT,switch fluorescence ratio,1.01 ± 0.021
CGGGGCCGGG,switch fluorescence ratio,0.996 ± 0.017
CGGGGCGGTC,switch fluorescence ratio,0.96 ± 0.047
CGGGGCGGTT,switch fluorescence ratio,1 ± 0.032
CGGGGGAGAA,switch fluorescence ratio,1 ± 0.034
CGGGGGAGCG,switch fluorescence ratio,1 ± 0.045
CGGGGGAGGG,switch fluorescence ratio,1.16 ± 0.45
CGGGGGATTG,switch fluorescence ratio,0.988 ± 0.014
CGGGGGCATG,switch fluorescence ratio,1.013 ± 0.0094
CGGGGGCGAA,switch fluorescence ratio,0.996 ± 0.05
CGGGGGGAAA,switch fluorescence ratio,1 ± 0.02
CGGGGGGACA,switch fluorescence ratio,0.968 ± 0.041
CGGGGGGCTG,switch fluorescence ratio,0.995 ± 0.04
CGGGGGGGA,switch fluorescence ratio,1.0242 ± 0.00033
CGGGGGGGCG,switch fluorescence ratio,1.03 ± 0.074
CGGGGGGGCT,switch fluorescence ratio,0.997 ± 0.026
CGGGGGGGTA,switch fluorescence ratio,1 ± 0.027
CGGGGGGTAA,switch fluorescence ratio,1.01 ± 0.029
CGGGGGTAG,switch fluorescence ratio,0.9982 ± 0.0021
CGGGGGTGCA,switch fluorescence ratio,1 ± 0.0011
CGGGGGTGG,switch fluorescence ratio,1.02 ± 0.062
CGGGGGTTCT,switch fluorescence ratio,1.006 ± 0.0032
CGGGGGTTGA,switch fluorescence ratio,1.03 ± 0.03
CGGGGTAATC,switch fluorescence ratio,1.03 ± 0.047
CGGGGTAGCT,switch fluorescence ratio,0.989 ± 0.035
CGGGGTCGGA,switch fluorescence ratio,0.999 ± 0.035
CGGGGTCTGA,switch fluorescence ratio,0.953 ± 0.028
CGGGGTGCTG,switch fluorescence ratio,1.03 ± 0.03
CGGGGTTCCG,switch fluorescence ratio,0.9532 ± 0.0064
CGGGGTTCGG,switch fluorescence ratio,0.996 ± 0.023
CGGGGTTGGC,switch fluorescence ratio,1.02 ± 0.061
CGGGGTTTT,switch fluorescence ratio,0.999 ± 0.046
CGGGTAACGG,switch fluorescence ratio,1.035 ± 0.0014
CGGGTAATGG,switch fluorescence ratio,1.03 ± 0.07
CGGGTAATGT,switch fluorescence ratio,0.978 ± 0.029
CGGGTAATTT,switch fluorescence ratio,1.03 ± 0.019
CGGGTACATG,switch fluorescence ratio,1.03 ± 0.048
CGGGTAGTAC,switch fluorescence ratio,1.19 ± 0.03
CGGGTATAGC,switch fluorescence ratio,0.996 ± 0.05
CGGGTATGCT,switch fluorescence ratio,0.959 ± 0.025
CGGGTATGGA,switch fluorescence ratio,1.02 ± 0.033
CGGGTATGTA,switch fluorescence ratio,1 ± 0.0022
CGGGTCCATT,switch fluorescence ratio,0.981 ± 0.0079
CGGGTCTGTG,switch fluorescence ratio,0.999 ± 0.018
CGGGTGAATT,switch fluorescence ratio,1.01 ± 0.071
CGGGTGACGA,switch fluorescence ratio,1.03 ± 0.04
CGGGTGAGCA,switch fluorescence ratio,0.996 ± 0.026
CGGGTGAGGT,switch fluorescence ratio,1 ± 0.027
CGGGTGGGTC,switch fluorescence ratio,1.29 ± 0.51
CGGGTGGTCG,switch fluorescence ratio,0.8742 ± 0.0063
CGGGTGTTTT,switch fluorescence ratio,1.055 ± 0.0089
CGGGTTACGA,switch fluorescence ratio,1.02 ± 0.028
CGGGTTATGT,switch fluorescence ratio,0.992 ± 0.044
CGGGTTCAT,switch fluorescence ratio,1.01 ± 0.028
CGGGTTCGCC,switch fluorescence ratio,0.981 ± 0.012
CGGGTTGCAT,switch fluorescence ratio,1.023 ± 0.0087
CGGGTTGGGG,switch fluorescence ratio,1 ± 0.016
CGGGTTGGTC,switch fluorescence ratio,1.05 ± 0.041
CGGGTTTGGG,switch fluorescence ratio,0.983 ± 0.016
CGGTAAATGT,switch fluorescence ratio,1.05 ± 0.071
CGGTAACTGG,switch fluorescence ratio,1.01 ± 0.048
CGGTACGAAT,switch fluorescence ratio,1.034 ± 0.0096
CGGTAGCGCC,switch fluorescence ratio,0.99 ± 0.06
CGGTAGGGGG,switch fluorescence ratio,1.02 ± 0.049
CGGTAGTCAG,switch fluorescence ratio,0.9983 ± 0.008
CGGTAGTTTT,switch fluorescence ratio,0.99 ± 0.014
CGGTATAAGG,switch fluorescence ratio,0.982 ± 0.046
CGGTATGATC,switch fluorescence ratio,1.02 ± 0.022
CGGTATGGGG,switch fluorescence ratio,1 ± 0.029
CGGTATGTG,switch fluorescence ratio,1.01 ± 0.036
CGGTATTGTG,switch fluorescence ratio,0.968 ± 0.028
CGGTCCGGCG,switch fluorescence ratio,1.012 ± 0.0011
CGGTCCTTGG,switch fluorescence ratio,0.99 ± 0.014
CGGTCGATCC,switch fluorescence ratio,1 ± 0.023
CGGTCTAGGG,switch fluorescence ratio,0.995 ± 0.019
CGGTCTGGGG,switch fluorescence ratio,0.981 ± 0.027
CGGTCTTACT,switch fluorescence ratio,1.02 ± 0.02
CGGTGAATAC,switch fluorescence ratio,2.67 ± 0.064
CGGTGACGTT,switch fluorescence ratio,1.01 ± 0.028
CGGTGAGGAC,switch fluorescence ratio,0.98264 ± 0.00074
CGGTGATTGA,switch fluorescence ratio,1.004 ± 0.0023
